Tests used:
Experiment in all cases: cell-based or functional assay
[1] = biological target: HIV-1 MGRM-AE-006 Env (HIV-1)
[2] = biological target: HIV-1 MGRM-D-008 Env (HIV-1)
HIV-1 APV-13 Env (HIV-1) = biological target: HIV-1 APV-13 Env (HIV-1)
[3] = biological target: HIV-1 MGRM-F1-015 Env (HIV-1)
[4] = biological target: HIV-1 6535.3 (Acute) Env on pseudovirus (HIV-1)
[5] = biological target: HIV-1 MGRM-F1-004 Env (HIV-1)
[6] = biological target: HIV-1 MGRM-C-008 Env on pseudovirus (HIV-1)
[7] = biological target: HIV-1 NL43 Env on pseudovirus (HIV-1)
[8] = biological target: HIV-1 MGRM-D-020 Env (HIV-1)
[9] = biological target: HIV-1 MGRM-AG-005 Env (HIV-1)
HIV-1 NL43 Env (HIV-1) = biological target: HIV-1 NL43 Env (HIV-1)
[10] = biological target: HIV-1 MGRM-C-014 Env on pseudovirus (HIV-1)
[11] = biological target: HIV-1 MGRM-G-004 Env (HIV-1)
[12] = biological target: HIV-1 MGRM-G-014 Env (HIV-1)
[13] = biological target: HIV-1 MGRM-AG-013 Env (HIV-1)
[14] = biological target: HIV-1 MGRM-AG-001 Env (HIV-1)
[15] = biological target: HIV-1 MGRM-C-006 Env on pseudovirus (HIV-1)
[16] = biological target: HIV-1 MGRM-G-006 Env (HIV-1)
[17] = biological target: HIV-1 MGRM-C-019 Env on pseudovirus (HIV-1)
HIV-1 APV-6 Env (HIV-1) = biological target: HIV-1 APV-6 Env (HIV-1)
[18] = biological target: HIV-1 MGRM-C-001 Env on pseudovirus (HIV-1)
[19] = biological target: HIV-1 MGRM-C-017 Env on pseudovirus (HIV-1)
[20] = biological target: HIV-1 MGRM-D-004 Env (HIV-1)
[21] = biological target: HIV-1 MGRM-C-015 Env on pseudovirus (HIV-1)
[22] = biological target: HIV-1 92UG046 Env (HIV-1)
[23] = biological target: HIV-1 MGRM-F1-010 Env (HIV-1)
[24] = biological target: HIV-1 MGRM-C-020 Env on pseudovirus (HIV-1)
[25] = biological target: HIV-1 92BR020 Env on pseudovirus (HIV-1)
[26] = biological target: HIV-1 THR0.18 (Acute) Env on pseudovirus (HIV-1)
[27] = biological target: HIV-1 MGRM-F1-006 Env (HIV-1)
[28] = biological target: HIV-1 92UG001 Env (HIV-1)
[29] = biological target: HIV-1 IAVI-C3 Env (HIV-1)
[30] = biological target: HIV-1 MGRM-AG-009 Env (HIV-1)
[31] = biological target: HIV-1 MGRM-D-011 Env (HIV-1)
[32] = biological target: HIV-1 MGRM-D-021 Env (HIV-1)
[33] = biological target: HIV-1 MGRM-C-012 Env on pseudovirus (HIV-1)
[34] = biological target: HIV-1 93TH305 Env on pseudovirus (HIV-1)
[35] = biological target: HIV-1 MGRM-D-019 Env (HIV-1)
[36] = biological target: HIV-1 92UG005 Env (HIV-1)
[37] = biological target: HIV-1 MGRM-C-005 Env on pseudovirus (HIV-1)
[38] = biological target: aMLV envelope (negative control pseudovirus)
[39] = biological target: HIV-1 TRJ0.58 (Acute) Env on pseudovirus (HIV-1)
[40] = biological target: HIV-1 MGRM-AE-002 Env (HIV-1)
[41] = biological target: HIV-1 MGRM-C-023 Env on pseudovirus (HIV-1)
[42] = biological target: HIV-1 MGRM-G-011 Env (HIV-1)
[43] = biological target: HIV-1 MGRM-G-028 Env (HIV-1)
[44] = biological target: HIV-1 MGRM-D-022 Env (HIV-1)
[45] = biological target: HIV-1 92RW020 Env (HIV-1)
[46] = biological target: HIV-1 MGRM-D-002 Env (HIV-1)
[47] = biological target: HIV-1 MGRM-G-025 Env (HIV-1)
[48] = biological target: HIV-1 MGRM-D-028 Env (HIV-1)
[49] = biological target: HIV-1 JRFL Env on pseudovirus (HIV-1)

2F5 (antibody)
IC50 (µg/ml), pseudovirus neutralization [1]: 0.18 µg/mL | IC50 (µg/ml), pseudovirus neutralization [2]: > 50 µg/mL | neutralization IC50 (HIV-1 APV-13 Env (HIV-1)): 2.8 mg/L | IC50 (pseudovirus neutralization) [3]: 0.1 mg/L | IC50 [4]: 2.76 mg/L | IC50 (pseudovirus neutralization) [5]: 4.31 mg/L | IC50 [6]: > 50 mg/L | IC50 [7]: 2.02 mg/L | IC50 (µg/ml), pseudovirus neutralization [8]: > 50 µg/mL | IC50 (µg/ml), pseudovirus neutralization [9]: > 50 µg/mL | neutralization IC50 (HIV-1 NL43 Env (HIV-1)): 2.41 mg/L | neutralization IC90 (HIV-1 NL43 Env (HIV-1)): 19.3 mg/L | IC50 [10]: > 50 mg/L | IC50 (µg/ml), pseudovirus neutralization [11]: > 50 µg/mL | IC50 (µg/ml), pseudovirus neutralization [12]: 9.65 µg/mL | IC50 (µg/ml), pseudovirus neutralization [13]: 1.79 µg/mL | IC50 (µg/ml), pseudovirus neutralization [14]: 0.75 µg/mL | IC50 [15]: > 50 mg/L | IC50 (µg/ml), pseudovirus neutralization [16]: 1.33 µg/mL | IC50 [17]: > 50 mg/L | neutralization IC50 (HIV-1 APV-6 Env (HIV-1)): 0.1 mg/L | IC50 [18]: > 50 mg/L | IC50 [19]: > 50 mg/L | IC50 (µg/ml), pseudovirus neutralization [20]: 2.3 µg/mL | IC50 [21]: > 50 mg/L | IC50 (µg/ml), pseudovirus neutralization [22]: > 50 µg/mL | IC50 (pseudovirus neutralization) [23]: 14.6 mg/L | IC50 [24]: > 50 mg/L | IC50 [25]: > 50 mg/L | IC50 [26]: > 50 mg/L | IC50 (pseudovirus neutralization) [27]: 1.1 mg/L | IC50 (µg/ml), pseudovirus neutralization [28]: 13 µg/mL | neutralization IC50 [29]: > 50 mg/L | IC50 (µg/ml), pseudovirus neutralization [30]: 24.8 µg/mL | IC50 (µg/ml), pseudovirus neutralization [31]: > 50 µg/mL | IC50 (µg/ml), pseudovirus neutralization [32]: > 50 µg/mL | IC50 [33]: > 50 mg/L | IC50 [34]: 7.61 mg/L | IC50 (µg/ml), pseudovirus neutralization [35]: 0.14 µg/mL | IC50 (µg/ml), pseudovirus neutralization [36]: 8.61 µg/mL | neutralization IC50 [36]: 11.8 mg/L | neutralization IC90 [36]: > 50 mg/L | IC50 [37]: > 50 mg/L | IC50 (pseudovirus neutralization) [38]: > 50 mg/L | IC50 [39]: > 50 mg/L | IC50 (µg/ml), pseudovirus neutralization [40]: 0.31 µg/mL | IC50 [41]: > 50 mg/L | IC50 (µg/ml), pseudovirus neutralization [42]: 1.16 µg/mL | IC50 (µg/ml), pseudovirus neutralization [43]: 2.24 µg/mL | IC50 (µg/ml), pseudovirus neutralization [44]: 8.45 µg/mL | neutralization IC50 [45]: 3.37 mg/L | neutralization IC90 [45]: 27.7 mg/L | IC50 (µg/ml), pseudovirus neutralization [46]: 24.6 µg/mL | IC50 (µg/ml), pseudovirus neutralization [47]: > 50 µg/mL | IC50 (µg/ml), pseudovirus neutralization [48]: > 50 µg/mL | IC50 [49]: 3.54 mg/L

2G12 (antibody)
IC50 (µg/ml), pseudovirus neutralization [1]: > 50 µg/mL | IC50 (µg/ml), pseudovirus neutralization [2]: > 50 µg/mL | neutralization IC50 (HIV-1 APV-13 Env (HIV-1)): 23.9 mg/L | IC50 (pseudovirus neutralization) [3]: > 50 mg/L | IC50 [4]: 3.85 mg/L | IC50 (pseudovirus neutralization) [5]: > 50 mg/L | IC50 [6]: > 50 mg/L | IC50 [7]: 0.49 mg/L | IC50 (µg/ml), pseudovirus neutralization [8]: > 50 µg/mL | IC50 (µg/ml), pseudovirus neutralization [9]: > 50 µg/mL | neutralization IC50 (HIV-1 NL43 Env (HIV-1)): 0.75 mg/L | neutralization IC90 (HIV-1 NL43 Env (HIV-1)): 15.8 mg/L | IC50 [10]: > 50 mg/L | IC50 (µg/ml), pseudovirus neutralization [11]: > 50 µg/mL | IC50 (µg/ml), pseudovirus neutralization [12]: > 50 µg/mL | IC50 (µg/ml), pseudovirus neutralization [13]: 0.95 µg/mL | IC50 (µg/ml), pseudovirus neutralization [14]: 0.69 µg/mL | IC50 [15]: > 50 mg/L | IC50 (µg/ml), pseudovirus neutralization [16]: > 50 µg/mL | IC50 [17]: > 50 mg/L | neutralization IC50 (HIV-1 APV-6 Env (HIV-1)): 5.3 mg/L | IC50 [18]: 2.93 mg/L | IC50 [19]: > 50 mg/L | IC50 (µg/ml), pseudovirus neutralization [20]: > 50 µg/mL | IC50 [21]: 1.75 mg/L | IC50 (µg/ml), pseudovirus neutralization [22]: > 50 µg/mL | IC50 [24]: 18.6 mg/L | IC50 [25]: 4.84 mg/L | IC50 [26]: > 50 mg/L | IC50 (pseudovirus neutralization) [27]: > 50 mg/L | IC50 (µg/ml), pseudovirus neutralization [28]: > 50 µg/mL | neutralization IC50 [29]: > 50 mg/L | neutralization IC90 [29]: > 50 mg/L | IC50 (µg/ml), pseudovirus neutralization [30]: > 50 µg/mL | IC50 (µg/ml), pseudovirus neutralization [31]: 1.5 µg/mL | IC50 (µg/ml), pseudovirus neutralization [32]: 23 µg/mL | IC50 [33]: > 50 mg/L | IC50 [34]: 0.55 mg/L | IC50 (µg/ml), pseudovirus neutralization [35]: > 50 µg/mL | IC50 (µg/ml), pseudovirus neutralization [36]: > 50 µg/mL | neutralization IC50 [36]: > 50 mg/L | neutralization IC90 [36]: > 50 mg/L | IC50 [37]: > 50 mg/L | IC50 (pseudovirus neutralization) [38]: > 50 mg/L | IC50 [39]: > 50 mg/L | IC50 (µg/ml), pseudovirus neutralization [40]: > 50 µg/mL | IC50 [41]: > 50 mg/L | IC50 (µg/ml), pseudovirus neutralization [42]: > 50 µg/mL | IC50 (µg/ml), pseudovirus neutralization [43]: 28.2 µg/mL | IC50 (µg/ml), pseudovirus neutralization [44]: > 50 µg/mL | neutralization IC50 [45]: 0.56 mg/L | neutralization IC90 [45]: 6.23 mg/L | IC50 (µg/ml), pseudovirus neutralization [46]: > 50 µg/mL | IC50 (µg/ml), pseudovirus neutralization [47]: 31.9 µg/mL | IC50 (µg/ml), pseudovirus neutralization [48]: > 50 µg/mL | IC50 [49]: 1.45 mg/L

1496_C09 (PG9) (TCN-109) (antibody)
IC50 (µg/ml), pseudovirus neutralization [1]: 0.05 µg/mL | IC50 (µg/ml), pseudovirus neutralization [2]: 6.86 µg/mL | IC50 [4]: 0.22 mg/L | IC50 [7]: 0.32 mg/L | IC50 (µg/ml), pseudovirus neutralization [8]: 2.03 µg/mL | IC50 (µg/ml), pseudovirus neutralization [9]: 29.7 µg/mL | IC50 [10]: 0.64 mg/L | IC50 (µg/ml), pseudovirus neutralization [12]: 6.32 µg/mL | IC50 (µg/ml), pseudovirus neutralization [13]: 0.23 µg/mL | IC50 (µg/ml), pseudovirus neutralization [14]: 8.83 µg/mL | IC50 [15]: 0.23 mg/L | IC50 (µg/ml), pseudovirus neutralization [16]: 0.51 µg/mL | IC50 [17]: 0.01 mg/L | neutralization IC50 (HIV-1 APV-6 Env (HIV-1)): 0.0869 mg/L | neutralization IC90 (HIV-1 APV-6 Env (HIV-1)): 1.96 mg/L | IC50 [19]: 1.52 mg/L | IC50 (µg/ml), pseudovirus neutralization [20]: 0.03 µg/mL | IC50 [21]: 0.5 mg/L | IC50 (µg/ml), pseudovirus neutralization [22]: 0.64 µg/mL | IC50 (pseudovirus neutralization) [23]: 0.03 mg/L | IC50 [26]: 12.4 mg/L | IC50 (pseudovirus neutralization) [27]: 1.45 mg/L | IC50 (µg/ml), pseudovirus neutralization [28]: 41.8 µg/mL | neutralization IC50 [29]: 12.9 mg/L | IC50 (µg/ml), pseudovirus neutralization [31]: 0.06 µg/mL | IC50 [33]: 0.24 mg/L | IC50 [34]: 2.08 mg/L | IC50 (µg/ml), pseudovirus neutralization [35]: 0.03 µg/mL | IC50 [37]: 2.98 mg/L | IC50 [39]: 0.43 mg/L | IC50 (µg/ml), pseudovirus neutralization [40]: 0.04 µg/mL | IC50 [41]: 0.51 mg/L | IC50 (µg/ml), pseudovirus neutralization [42]: 0.19 µg/mL | IC50, TZM-bl pseudovirus neutralization [45]: 0.1 mg/L | neutralization IC50 [45]: 0.0637 mg/L | neutralization IC90 [45]: 6.55 mg/L | IC50 (µg/ml), pseudovirus neutralization [46]: 0.027 µg/mL | IC50 (µg/ml), pseudovirus neutralization [48]: 4.39 µg/mL

From patent US20160264649A1
